Assay results from patent US20140363495A1.

What was measured:
[1] = target: HLA-A2 molecules on T2A2 cells (human); experiment: flow cytometry, upregulation of HLA-A2 on T2A2 cells, peptide 25 µg/mL, negative control; settings: remark: other sources report otherwise
[2] = target: HLA-A2 molecules on T2A2 cells (human); experiment: flow cytometry, upregulation of HLA-A2 on T2A2 cells, peptide 12.5 µg/mL, negative control; settings: remark: other sources report otherwise

HLFGYSWYK [CAP-7]
T2A2 Binding (MFI) [1]: 83.8 MFI
T2 Binding (MFI) [2]: 109 MFI
